{"source": "patent US11649285B2", "about": "“Identification of VSIG3/VISTA as a novel immune checkpoint and use thereof for immunotherapy” (BIO-TECHNE CORPORATION, dated 2023)", "binders": {"B1": {"name": "Recombinant human VSIG3 Fc Chimera (Fc fusion)", "chain": "LEVSESPGSIQVARGQTAVLPCTFTTSAALINLNVIWMVTPLSNANQPEQVILYQGGQMFDGAPRFHGRVGFTGTMPATNVSIFINNTQLSDTGTYQCLVNNLPDIGGRNIGVTGLTVLVPPSAPHCQIQGSQDIGSDVILLCSSEEGIPRPTYLWEKLDNTLKLPPTATQDQVQGTVTIRNISALSSGLYQCVASNAIGTSTCLLDLQVISPQPRNIGLIAG"}}, "biological_target": "Recombinant human VISTA Fc Chimera (human (homo sapiens))", "sequence (chain, as listed by the source mutant limits assumed)": "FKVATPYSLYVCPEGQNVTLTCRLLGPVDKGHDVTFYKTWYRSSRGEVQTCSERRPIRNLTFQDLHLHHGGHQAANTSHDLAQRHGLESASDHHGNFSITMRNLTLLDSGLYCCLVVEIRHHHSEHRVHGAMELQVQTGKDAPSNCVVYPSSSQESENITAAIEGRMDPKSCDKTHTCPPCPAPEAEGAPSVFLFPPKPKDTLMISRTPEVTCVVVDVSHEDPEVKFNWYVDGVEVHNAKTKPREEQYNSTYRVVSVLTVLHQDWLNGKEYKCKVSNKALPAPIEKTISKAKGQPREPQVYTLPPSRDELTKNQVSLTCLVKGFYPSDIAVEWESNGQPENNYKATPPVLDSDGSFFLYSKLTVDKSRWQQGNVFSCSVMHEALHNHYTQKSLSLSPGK", "assay": "functional ELISA: rhVISTA coated at 2 µg/mL, biotin-labeled rhVSIG3, streptavidin-HRP", "experimental": "Following blocking of the wells with 1% BSA, varying amounts of rhVSIG3 labeled with biotin was added. Biotin label associated with the plate due to the rhVSIG3—rhVISTA interaction was detected with streptavidin-HRP.", "data": [{"binder": "B1", "values": [{"measurement": "EC50", "result": "~0.25", "unit": "µg/mL"}]}]}
